{"source": "the nanobody polyreactivity screen of Harvey et al. (2022)", "assay": "yeast display, Sf9 membrane polyspecificity reagent, FACS + sequencing; frameworks hold sequencing errors", "summary_of_the_method": "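Galactose-induced (36–48 hours) yeast carrying a synthetic nanobody display library were exposed to 10% biotinylated, detergent-solubilized Sf9 membrane reagent at 4 °C for 1 hour. FACS followed streptavidin microbead enrichment, using low and high (top ~1%) gates for expression (anti-HA) and reagent binding (streptavidin). Colony PCR, MiSeq 2 × 250 sequencing and CDR-length filtering followed. Labels for polyreactivity reflect the gate of origin.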", "data": [{"sequence": "QVQLVESGGGLVQAGGSLRLSCAASGRTITWYAMGWYRQAPGTERELVAAITRTGRTTYADSVKGRFTISRDNAKNTVYLQMNSLKPEDTAVYYCAARRWGEYDYWGQGTQVTVSS", "values": [{"measurement": "polyreactivity (PSR sort gate)", "value": "high polyreactivity"}]}, {"sequence": "QVQLVESGGGLVQAGGSLRLSCAASGSTSPGYAMGWYRQAPGKERELVAAITFRGTRTYYSDSVKGRFTISRDNAKNTVYLQMNSQKPDDTAVYYCNVVGYGPNRGRVDYCGQGTQVTVSS", "values": [{"measurement": "polyreactivity (PSR sort gate)", "value": "high polyreactivity"}]}, {"sequence": "QVQLVESGGGLVQAGGSLRLSCAASGRIFYYYGMGWYRQAPGKERELVAAISNGGRTYYADSVKGRFTISRDNAKNTVYLQMNSLKPEDTAVYYCAALTRGRGGYDYWGLGTQVTVSS", "values": [{"measurement": "polyreactivity (PSR sort gate)", "value": "high polyreactivity"}]}, {"sequence": "QVQLVESGGGLVQAGGSLRLSCAASGFTLSYYAMGWYRQAPGKERELVASISAIGGITYYADSVKGRFTISRDNAKNTVYLQMNSLKPEDTAVYYCARQGRRYRRFDSWGQGTQVTVSS", "values": [{"measurement": "polyreactivity (PSR sort gate)", "value": "high polyreactivity"}]}, {"sequence": "QVQLVESGGGLVQAGGSLRLSCAASRRILRVYAMGWYRQAPGKERELVASISSGGSTNYADSVKGRFTISRDNAKNTVYFQMKSLKPEDTAVYYCNRRWVHTYDYWGQGTQVTVSS", "values": [{"measurement": "polyreactivity (PSR sort gate)", "value": "high polyreactivity"}]}, {"sequence": "QVQHVESGGGLGQAGGSLRLSCAASGRIFDEYALGSYRQAPGKERELVAAISLIGASTYYADSVKGRFTISRDTAKNTVYLQMNSQHPEDTAVYYCAAEYAFVVPGYYREVYYWGEGTQVTVSS", "values": [{"measurement": "polyreactivity (PSR sort gate)", "value": "low polyreactivity"}]}, {"sequence": "QVQLVESGVGLVQAGGSLRLSCAASGYTFAYNAMGWYRPAPGKERELVAAITSRAGSTHYADSVKGRFTISRDNAKNTVYLQMNSLKPEDTAVYYCAAKRYNRLRSYRYSDREDYWGQGTQVTVSS", "values": [{"measurement": "polyreactivity (PSR sort gate)", "value": "high polyreactivity"}]}, {"sequence": "QVQLVESGGGLVQAAGSLRLSCAASGSIFLSYAMGWYRQAPGKERELVAAITTDGGTNYADSVKGRFTISRDNAKNTVYLQMNSLKPEDSAVYYCAADSDPIPLIDYTLPMDYWGQGTQVTVSS", "values": [{"measurement": "polyreactivity (PSR sort gate)", "value": "low polyreactivity"}]}, {"sequence": "QVQLVESGGGLVQAGGSLRLSCAASGYTLNIYGMGWYRQATGKERELVAAISRGGSTNYADSVKGRFTISRDNAKNTVYLQMNSLKPEDTAVYYCAKVYNYRSVRYYYWGQGTQVTVSS", "values": [{"measurement": "polyreactivity (PSR sort gate)", "value": "high polyreactivity"}]}, {"sequence": "QVQLVESGGGLDQAGGSLRLSCAASGSIFTYNVMGWYRQAPGKERELVAAISWDGDSTYYADSVKGRFTISRDNAMKTVYLQMNSLKAEDTAVYYCAADVHEKFQYDYWGQGNQVTVSS", "values": [{"measurement": "polyreactivity (PSR sort gate)", "value": "high polyreactivity"}]}, {"sequence": "QVQLVESGGGLVQAGGSLRLSCAASGFTLPVYGMGWYRQAPGQERELVAAISSRGGNTYYADSVKGRFTISRDNAKNTVYLQMNSLKPEDTAVYYCAAGGITYTGDDYWGQGTQVTVSS", "values": [{"measurement": "polyreactivity (PSR sort gate)", "value": "high polyreactivity"}]}, {"sequence": "QVQLVESGGGLVQAGGSLRLSCAASGRTFVVYGMGWYRQAPGKERELVATITSGGSTDYADSVKGRFTIARDNAKNTVYLQMNSLKPEDTAVYYCAKETSYTNDDDYWGQGTQVTVSS", "values": [{"measurement": "polyreactivity (PSR sort gate)", "value": "low polyreactivity"}]}, {"sequence": "QVQLVESGGGLVQAGGSLRLSCAASGFILYYYALGWYRQAPGKEWEIVAAISRNGGRTYYADSVKGRFTISRDNAKNTVYLQMISLKPEDTAVDYCNKGVSRTLSSAYEYWGQGTQVTVSS", "values": [{"measurement": "polyreactivity (PSR sort gate)", "value": "high polyreactivity"}]}, {"sequence": "QVQLVESGGCLVQAGGSLRLSCASSGSTFSPNDMGWYRQAPGKESELVADISNYADSVKGRFTISRDNAKNTVYLQMNSLKPEDTAVYYCAAEWRGDRYRLYVVSWWYDYWGQGTQVTVSS", "values": [{"measurement": "polyreactivity (PSR sort gate)", "value": "low polyreactivity"}]}, {"sequence": "QVQLVESGGGLVQAGGSLRLSCAASGIIFEYYAMGWYRQAPGKERELVAAITWNGGRTYYADSVKGRFTISRDNAKNTVYLQMNSLKPEDTAVYYCAARKPRSGGPFDYWGQGTQVTVSS", "values": [{"measurement": "polyreactivity (PSR sort gate)", "value": "high polyreactivity"}]}, {"sequence": "QVQLEESGGGLVQAGGSLRLSCAASGSTFYYYALGWYRQAPGKERELVATINKIVGITYYADSVKGRFTISRDNAKNTVYLQRNSLKPEDTAVYYCAVQDTSYDVQYSYGYWGQGTQVNVSS", "values": [{"measurement": "polyreactivity (PSR sort gate)", "value": "low polyreactivity"}]}, {"sequence": "QVQLVESGGGLVQAGGSLRLSCAASGIISYPTVMGWYRQAPGKERELVPAITSGGRTKYADSVKGRFTISRDNAKNTVYLQMNSLKPEDTAVYYCAARTVYWQSWSQFWGYNYWGQGTQVTVSS", "values": [{"measurement": "polyreactivity (PSR sort gate)", "value": "low polyreactivity"}]}, {"sequence": "QVQLVESGGGLVQAGGSLRLSCAASGRIFSRNDMGWYRQSPGKERELVAAITRIGGSTYYADSVKGRITISRDNAKNTVYLQMNSLKPEDNAVYYCAARGSGKYGWGQGSQVTVSS", "values": [{"measurement": "polyreactivity (PSR sort gate)", "value": "high polyreactivity"}]}, {"sequence": "QVQLVESGGGLVQAGGSLRLSCAASGAILRRYAMGWYRQAPGKERELVAAISYSGGNTYYADSVKGRFTISRDNAKNTVYLQMNSLKPEDTAVYYCAARYYGTYRGFYYWGQGTQVTVSS", "values": [{"measurement": "polyreactivity (PSR sort gate)", "value": "high polyreactivity"}]}, {"sequence": "QVQLVESGGGLVQSGGSLRLSCAASGITLRRNAMVWYRQAPGKERELVASISSRGGTTYYADSVKGRFTISRDNAKNTDYLQMISQKPEDTAVYYCAAYRVQRLANTGYDYWGQGTQVTVSS", "values": [{"measurement": "polyreactivity (PSR sort gate)", "value": "high polyreactivity"}]}, {"sequence": "QVQLVESGGGLVQAGGSLRLTCAASGRIFYQYAMGWYRQAPGKEMDLVASITTSGGNTYYADSVKGRFTISRDNAKNTVYLQMNSLKPEDTAVYYCAARFNWRQWLYEYWGQGTQVTVSS", "values": [{"measurement": "polyreactivity (PSR sort gate)", "value": "low polyreactivity"}]}]}
